Test results taken from patent publication US8076297B2, “Pharmaceutical composition containing polypeptide fragments of serralysins” (Centro De Ingenieria Genetica Y Biotecnologia, priority 2004, dated 2011).
Entries after “also recorded” stand apart in the source; their conditions may differ. Read-outs that look alike come from different tables or passages of the source.

Key:
gelatine = assay: Proteolytic activity, zymogram method; type: biochemical
Text: The method of the cimogeno using gelatine as sustrate (Vacca, A., Iurlaro, M., Ribatti, D., Minischetti, M., Nico, B., Ria, R., Pellegrino, A. and Dammacco, F. 1999. Blood. 94:4143-4155) was employed to verify the proteolytic activity of p50 and p25. Moreover was analized the enzymatic capacity of the degradation of p50.

[1] = system: murine mieloma P3X63Ag8 cells; assay: Apoptosis: DNA laddering and electron microscopy; type: cell-based
Experimental: For determining the kind of tumoral cell death, murine mieloma P3X63Ag8 cells (2*10^7) were treated in vitro with MG2327 at 22 μg/mL. Treated and untreated cells were prepared for ultrastructural transmission electron microscopy studies at different times, and genomic DNA was extracted for DNA laddering assay.
DNA fragmentation was assessed by 2% agarose gel electrophoresis. Apoptosis frequently involves cellular DNA laddering of 180-200 bp, representative of inter-nucleosomal distances (Soldatenkov, V. A., Prasad, S., Voloshin, Y., and Dritschilo, A. 1998. Cell Death Differ. 5:307-12).

P3X63Ag8 mieloide tumor = assay: Regression of implanted P3X63Ag8 myeloid tumor; type: in vivo, BALB/c mice
Experimental: The p25 was them injected i.p. to mice BALB/c after of 8 days of implanted P3X63Ag8 mieloide tumor and perfectly development. The doses of 22 μg/kg of weigh of p25 induced total regression in the 80% of the animals treatment. the negative controls death in the end of 30 days, where already had development compact tumors.

[2] = system: human microvasculature endothelial cells (HMEC); assay: Formation of tubular structures in matrigel; type: cell-based; settings: non-cytotoxic concentrations; activation with 10 ng/mL EGF, 1 μg/mL hydrocortisone
Text: Anti-angiogenic effect of MG2327 and anti-proliferative polypeptides fragments were evaluate by the method of formation of tubular structure in matrigel. Non citotoxic concentration of MG2327 and their fraction p25 y p50 were incubed with human microvasculature endothelial celulas (HMEC). The final result it evalued considering the tubular structure length formed and the number of interconexión between them. For this used Pro Express 4.5 Image-program.
Human micro-vasculature-derived human endotelial cells (HMEC) were assessed for endothelial cord formation on matrigel (Crum R, Szabo S, Folkman J. 1985. Science. 230:1375-8; Vacca, A., Ribatti, D., Presta, M., Minischettti, M., lurlaro, M, Ria, R, Albini, A, Bussolino, F. and Dammaacco, F. 1999. Blood 93:3064) after culture under non-cytotoxic MG2327 and p25 and p50 concentrations (Sanz, L., Pascual, M., Muñoz, A., González, M. A., Salvador C H, Álvarez-Vallina L. 2002. Microvascular Research 63:335-339). Results considered the length of tubular structures and the number of interconnections between them, as calculated by using the Image-Pro Express 4.5 package.

casein = assay: Proteolytic activity, modified Anson and Mirsky method; type: biochemical
Text: The modify method of Anson y Mirsky (Anson, M. L., Mirsky, A. E. 1932. J. Gen. Physiol. 16: 59) using casein as sustrate, was adjust in our laboratory with Tripsina (y=1.9314x-0.682; R^2=0.999). The proteic fraccions obtained in the chromatography describe in the Example 6 were assay with this method.

HEp-2 cells = assay: Anti-proliferative assay on HEp-2 cells, MTT method; type: cell-based, human
Experimental: For the characterization of the antiproliferative activity of MG2327 “in vitro” a panel of human cell lines was evaluated (table 1). A total of 2000 cells, except for PBMC (20000), were seeded in 96 wells culture wells, and different concentrations of MG2327 were added. After 72 hours, the number of survival cells was estimated by addition of MTT (Skehan, P., Storeng, R., Scudiero, D., Monks, A., Mcmahon, J., Vistica, D., Warren, J. T., Bokesch, H., Kenney, S. and BOYD, M. R. 1990. J Natl Cancer Inst. 82:1107). The soluble formazan products were detected at 540 nm in a multiscan plate reader.

B1: p25: 25 kDa non-proteolytic C-terminal fragment of serralysin PRZN_SERMA/PRZN_SERSP, degradation product of p50 (protein)
chain: SYWSETNTGGDNGGHYAAAPLLDDIAAIQHLYGANPSTRTGDTVYGFNSNTGRDFLSTTSNSQKVIFAAWDAGGNDTFDFSGYTANQRINLNEKSFSDVGGLKGNVSIAAGVTIENAIGGSGNDVIVGNAANNVLKGGAGNDVLFGGGGADELWGGAGKDIFVFSAASDSAPGASDWIRDFQKGIDKIDLSFFNKEANSSDFIHFVDHFSGTAGEALLSYNASSNVTDLSVNIGGHQAPDFLVKIVGQVDVATDFIV
proteolytic activity (gelatine): no showed this activity | ultrastructural changes (electron microscopy) [1]: chromatin condensing, damaged mitrocondria cristae and clustered mitocondria were detected | animals with total regression (P3X63Ag8 mieloide tumor; 22 μg/kg i.p., 8 days after tumor implant): 80% | tumor regression (P3X63Ag8 mieloide tumor; mouse, in vivo): induce total regression | differentiation of endothelial cells / tubular net formation [2]: significant inhibition; also recorded: index of net formation inferior to that observed for MG2327 and p50 | proteolytic (enzymatic) activity (casein): no showed enzymatic activity; also recorded: non present enzymatic activity; also recorded: do not present activity | inhibition of the growing of the tumor cells (HEp-2 cells; 18 μg/mL): 100% | activity of 25 kDa fraction compared with 50 kDa fraction (HEp-2 cells; 9 and 18 μg/mL): most active | activity of 25 kDa component compared with MG2327 (HEp-2 cells; doses of 2.5, 4.5 and 9 μg/mL): showed major biologic activity | IC50 (HEp-2 cells; fractions recovered from SDS gels and renaturalized, p50 with Zn4SO2 5 μM added, read-out: IC50 (FIG. 2)): 0.35 nM | IC50 (HEp-2 cells; fractions recovered from SDS gels, p50 incubated with 5 μM Zn2SO4, read-out: IC50 of the fractions p25 and p50): 0.48 nM | antiproliferative activity (HEp-2 cells; gel-recovered fractions, no zinc added (incubated with EDTA)): dosis-dependiente potent anti-proliferative activity; also recorded: strong antiproliferative dose dependent activity | anti-proliferative effect (HEp-2 cells; proteins purified by DEAE chromatography): showed anti-proliferative effect on HEp.2
